Data reported in patent publication US20240392003A1 (NUMAB THERAPEUTICS, published 2024).
Like-named read-outs stand apart in the source and are kept apart here. Blank lines part the entries; values can stand above or below the binder they belong to.

How the values were obtained:
[1] = target: T1, recombinant human ROR1 protein (Fc-Tag, Acro Biosystems RO1-H5250) (human, UniProt Q01973 30-406); assay: SPR; hROR1-Fc immobilized
T1 construct: Bought; also called hROR1; recombinant human ROR1 ECD; not shown: Fc tag

[2] = target: T1, recombinant human ROR1 protein (Fc-Tag, …); assay: SPR; hROR1-Fc immobilized; remark: listed apart in the source
[3] = target: T2, human ROR1 expressed on cells (human, UniProt Q01973 30-937); assay: flow cytometry, MDA-MB-231 cells; mean of three experiments
T2 construct: whole, on cells; One molecule for cell-surface ROR1 on all cell lines; the cell line is named under assay; also called hROR1; plasma membrane human ROR1

[4] = target: T2, human ROR1 expressed on cells; assay: flow cytometry, MDA-MB-231 cells; mean of two experiments
[5] = target: T3, human serum albumin (Sigma-Aldrich A3782) (human, UniProt P02768 25-609); assay: SPR; hSA immobilized, pH 7.4
T3 construct: also called hSA; HSA

[6] = target: T4, mouse serum albumin (Sigma-Aldrich A3559) (mouse, UniProt P07724 25-608); assay: SPR; mSA immobilized, pH 7.4
T4 construct: also called mSA; MSA

[7] = target: T4, mouse serum albumin (Sigma-Aldrich …); assay: SPR; mSA immobilized, pH 7.4; biphasic binding corrected with bulk correction in 1:1 fit
[8] = target: T4, mouse serum albumin (Sigma-Aldrich …); assay: SPR; mSA immobilized, pH 5.5; biphasic binding corrected with bulk correction in 1:1 fit
[9] = target: T3, human serum albumin (Sigma-Aldrich …); assay: SPR; hSA immobilized, pH 5.5
[10] = target: T5, cynomolgus monkey serum albumin (Molecular Innovations CYSA) (cynomolgus monkey); assay: SPR; cSA immobilized, pH 5.5
T5 construct: also called cSA; CSA

[11] = target: T5, cynomolgus monkey serum albumin …; assay: SPR; cSA immobilized, pH 7.4
[12] = target: T4, mouse serum albumin (Sigma-Aldrich …); assay: SPR; mSA immobilized, pH 5.5

Kd [1]: 0.416 nM | koff [1]: 9.79e-05 s⁻¹ | kon [1]: 250000 M⁻¹ s⁻¹ | Kd [2]: 0.285 nM | koff [2]: 9.56e-05 s⁻¹ | kon [2]: 335000 M⁻¹ s⁻¹ | EC50 [3]: 2.93 nM
B1: PRO2060 (scFv, V domains shown)
VH: QSQVVESGGGLVQPGGSLRLSCAVSGFDLSSYAVSWVRQAPGKGLEWIGIIYPRANTYYASWAKGRFTISKDNSKNTVYLQMNSLRAEDTAVYFCARDRYDSGAYLYTTYFNLWGQGTLVTVSS
VL: DVQMTQSPSSLSASVGDRVTITCRASENIYSGLAWYQQKPGKPPKLLIYRASTLASGVSSRFSGSGSGTDFTLTISSLQPEDFATYYCQGGYYSSSSTYIAFGTGTKVTVLG
notes: scFv (Full graft); also called 55-38-D07-sc02

Kd [1]: 0.103 nM | koff [1]: 0.000455 s⁻¹ | kon [1]: 4.45e+06 M⁻¹ s⁻¹ | EC50 [4]: 0.26 nM | Kd [2]: 0.0926 nM | koff [2]: 0.00049 s⁻¹ | kon [2]: 5.29e+06 M⁻¹ s⁻¹
B2: PRO2062 (scFv, V domains shown)
VH: QSQLVESGGGLVQPGGSLRLSCAVSGLSLSRNAMSWVRQAPGKGLEWIGIILTSGSTYYASWAKGRFTISKDNSKNTVYLQMNSLRAEDTAVYFCVRGIASSSLKSFWGQGTLVTVSS
VL: AQQLTQSPSSLSASVGDRVTITCQASQNVWNNNYLSWFQQKPGKPPKLLIVTASTLASGVSSRFSGSGSGTDFTLTISSLQPEDFATYYCAGGFSGEIRAFGTGTKVTVLG
notes: scFv (Full graft); also called 55-39-G02-sc02

Kd [5]: 2.2 nM | koff [5]: 0.0012 s⁻¹ | kon [5]: 550000 M⁻¹ s⁻¹ | koff [6]: 0.00029 s⁻¹ | kon [6]: 32000 M⁻¹ s⁻¹ | Kd [7]: 9 nM | Kd [8]: 2.5 nM | Kd [9]: 3.3 nM | koff [9]: 0.003 s⁻¹ | kon [9]: 900000 M⁻¹ s⁻¹ | Kd [10]: 2.3 nM | koff [10]: 0.0021 s⁻¹ | kon [10]: 910000 M⁻¹ s⁻¹ | Kd [11]: 1.6 nM | koff [11]: 0.00091 s⁻¹ | kon [11]: 580000 M⁻¹ s⁻¹ | koff [12]: 0.0002 s⁻¹ | kon [12]: 78000 M⁻¹ s⁻¹
B3: PRO2155 (scFv, V domains shown)
VH: EVQLVESGGGLVQPGGSLRLSCAASGFSLSSYAMNWVRQAPGKGLEWIGHINAGDIAYYATWAKGRFTISRDNSKNTVYLQMNSLRAEDTAVYFCARGAGGFSTGPFKLWGQGTLVTVSS
VL: AFELTQSPSSLSASVGDRVTITCQASESINSRLAWYQQKPGQPPKLLIYDASDLTSGVPSRFSGSGSGTDFTLTISSLQPEDFATYYCQGYGGSSTTTFGGGTKLTVLG
notes: scFv; also called 19-04-A10-sc02; anti-hSA scFv
